Test results published in US20260167714A1 (COHERUS BIOSCIENCES, published 2026).
One block for each binder: values may come before it.

What was measured:
[1] = molecular target: T1, recombinant human ILT4 (LILRB2) (human, UniProt Q8N423 22-460); assay: SPR, Biacore T200, mAb captured on anti-Fc, ILT4 injected, medium resolution, 25 C
T1 construct: Bought protein (Acro Biosystems or R&D Systems); also called ILTR4
Procedure: (§1) Label-free SPR analysis on a Biacore T200 instrument was utilized to measure antibody affinity to ILT4. CM4 sensor chips from Cytiva Inc. were utilized for all medium resolution analyses. Either anti-mouse Fc specific or anti-human Fc specific capture surfaces were prepared using standard amine coupling chemistry. Mouse, Chimera or Humanized mAbs were captured to their respective surfaces and ILT4 was injected across the surfaces from 101 nM to 0.79 nM in a 2-fold serial dilution series at a flow rate of 100 μL/min. The association phase was followed for 90 sec. while the dissociation phase was followed for 1200 sec. due to the medium resolution analysis implemented here. The sensorgrams were double-referenced and fit globally to a 1:1 interaction model with a term included for mass transport, and the equilibrium dissociation constant was calculated as KD=koff/kₒₙ. […] All kinetic experiments were performed at 25° C. in a buffer consisting of Hepes-buffered saline, pH 7.4, with 0.05% polysorbate 20 (HBS-P+) and 100 μg/ml Bovine Serum Albumin (BSA).

[2] = molecular target: T2, human ILT4 expressed on cells (human, UniProt Q8N423 22-597); assay: cell-based or functional assay
T2 sequence (Q8N423 22-597): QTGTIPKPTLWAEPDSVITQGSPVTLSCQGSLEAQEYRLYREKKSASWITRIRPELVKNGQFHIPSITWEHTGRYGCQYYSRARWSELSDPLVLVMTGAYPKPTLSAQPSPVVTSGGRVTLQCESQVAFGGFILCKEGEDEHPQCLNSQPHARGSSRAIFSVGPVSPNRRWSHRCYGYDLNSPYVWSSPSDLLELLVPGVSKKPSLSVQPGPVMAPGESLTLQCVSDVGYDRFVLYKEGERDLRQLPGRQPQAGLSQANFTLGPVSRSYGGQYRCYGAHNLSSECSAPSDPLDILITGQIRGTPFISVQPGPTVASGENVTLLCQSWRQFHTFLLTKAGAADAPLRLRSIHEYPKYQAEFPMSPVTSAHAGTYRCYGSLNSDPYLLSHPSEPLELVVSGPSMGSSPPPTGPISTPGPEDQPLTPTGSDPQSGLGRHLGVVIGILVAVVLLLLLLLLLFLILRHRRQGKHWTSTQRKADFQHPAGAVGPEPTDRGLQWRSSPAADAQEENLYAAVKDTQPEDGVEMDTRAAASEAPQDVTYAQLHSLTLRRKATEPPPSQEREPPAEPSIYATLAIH

[3] = molecular target: T1, recombinant human ILT4 (LILRB2); assay: SPR, Biacore T200, medium resolution; koff held at its limit of 4.27e-5 s^-1
Procedure: as §1

[4] = molecular target: T2, human ILT4 expressed on cells; assay: flow cytometry, blockade of PE-HLA-G tetramer (5 µg/ml) binding to CHO-S/ILT4 cells, experiment 2
Procedure: (§2) In the second blocking experiment, the primary antibody dilutions were made by diluting antibody to 15 μg/ml in FACS buffer. Three independent sets of eleven 2.5-fold serial dilutions were then made in FACS buffer from 15 μg/ml to 0.002 μg/ml. Each dilution set was handled independently, and 50 μl from each was added to cells in duplicate. Control wells received FACS buffer with no antibody. Wells were mixed and incubated for 30 minutes at 4 degrees C. Cells were washed twice in FACS buffer.
(§3) In both blocking experiments, phycoerythrin (PE)-conjugated HLA-G tetramer was diluted in FACS buffer to 5 μg/ml and 100 μl per well was added to cells. Cells were incubated at 4 degrees C. for 30 minutes, washed twice in FACS buffer, and resuspended in 250 μl FACS buffer with 0.1 μg/ml propidium iodide.
(§4) Cells were acquired on an Attune flow cytometer, with 5000 propidium iodide-negative cells collected per sample, and MFI was recorded. Relative blocking activity was calculated with the following formula: 100−(Sample MFI−Background MFI)/(Top MFI−Background MFI)*100. Prism software (Graphpad) was used to plot MFI and relative blocking activity for each sample. The blocking potency for each antibody, represented as IC₅₀, was calculated with Prism software.

[5] = molecular target: T2, human ILT4 expressed on cells; assay: flow cytometry blocking assay: ILT4-expressing CHO cells preincubated with antibody, then PE-HLA-G; HLA-G binding MFI falls from about 105000 (no antibody) to near 0
Procedure: as §2, §3, §4

T1 sequence (Q8N423 other isoform, or with tags, fused parts or gaps limits assumed): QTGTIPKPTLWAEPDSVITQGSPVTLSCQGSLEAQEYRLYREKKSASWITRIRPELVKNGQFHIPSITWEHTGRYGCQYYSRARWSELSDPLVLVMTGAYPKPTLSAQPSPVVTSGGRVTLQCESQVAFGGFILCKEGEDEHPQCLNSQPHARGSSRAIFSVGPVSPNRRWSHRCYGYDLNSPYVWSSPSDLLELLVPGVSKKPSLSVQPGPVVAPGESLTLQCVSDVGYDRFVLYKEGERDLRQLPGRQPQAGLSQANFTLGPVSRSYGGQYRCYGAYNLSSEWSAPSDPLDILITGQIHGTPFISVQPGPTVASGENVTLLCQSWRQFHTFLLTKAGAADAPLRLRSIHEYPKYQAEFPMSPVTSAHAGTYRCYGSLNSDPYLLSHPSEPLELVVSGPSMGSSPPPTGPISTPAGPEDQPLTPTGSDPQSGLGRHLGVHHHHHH

B1: Chimeric 45 (antibody, V domains shown)
VH: EVQLQQSGPELVKPGASVKISCKASGYTFTDYYMNWVKQSHGKSLEWIGDINPNNGGTSYNQKFKGKATLTVDKSSSTAYMELRSLTSEDSAVYYCARGGAELTGTYWYFDVWGTGTTVTVSS
VL: DIQMTQSPASLSISVGETVTITCRASENIYSNLAWYQQKQGKSPQVLVYGATNLADGVPSRFSGSGSGTQYSLKIKSLQSEDFGSYYCQHFWDSPFTFGSGTKLEIK
notes: Chimeric form of L45S4, captured on anti-human Fc
Kd [1]: 0.223 nM
koff [1]: 0.000109 s⁻¹
kon [1]: 489000 M⁻¹ s⁻¹

B2: L77S2 (antibody, IgG1, V domains shown)
VH: DVQLQQSGPELVKPGNSVKISCKAAGYSFTGYSVNWVKERHGKSLEWIGRINPYNGDIFNNQKFKGKATLTVDKSSSTAHMELRSLTSEDSAVYYCARGTTVGGAWFAYWGQGTLVTVSA
VL: VIVLTQSPASLAVSLGQRAAISCRASESVDSYGYSFLHWYQQKPGQPPKLLIYLASNLESGIPARFSGSGSGTDFTLTINPVEADDVATYYCQQSNEDLMYTFGGGTKLEIK
notes: also called Murine 77; mouse anti-human ILT4 antibody L77S2
IL-6 secretion by LPS-stimulated M2 macrophages (MSD), fold over control [2]: 2 fold
Kd [3]: ≤ 0.111 nM
koff [3]: ≤ 4.27e-05 s⁻¹
kon [1]: 387000 M⁻¹ s⁻¹
IC50 [4]: 0.103 µg/mL
IC50 [5]: 0.076 µg/mL

B4: Chimeric 156 (antibody, V domains shown)
VH: QVQLKQSGAELVRPGASVKLSCRASGYTFTDYYMNWVKQRPGQGLEWIARIYPGVYRTHYNEKFKDKATLTAEKSSSTAYMELSSLTSEDSAVYFCARSGYYGGTYEEDAMDYWGQGTSVTVSS
VL: DIQMTQSPASLSVSVGETVTITCRASENIYSNLAWYQQKQGKSPQLLVYAATSLADGVPSRFRGSGSGTQYSLKISSLQSEDFGNYYCQNFWDTPYTFGGGTKLEIK
notes: Chimeric form of L156S3
Kd [3]: ≤ 0.114 nM
koff [3]: ≤ 4.27e-05 s⁻¹
kon [1]: 373000 M⁻¹ s⁻¹

Next, values leading:

Kd [3]: ≤ 0.059 nM
koff [3]: ≤ 4.27e-05 s⁻¹
kon [1]: 728000 M⁻¹ s⁻¹
B3: Chimeric 77 (antibody, V domains shown)
VH: DVQLQQSGPELVKPGNSVKISCKAAGYSFTGYSVNWVKERHGKSLEWIGRINPYNGDIFNNQKFKGKATLTVDKSSSTAHMELRSLTSEDSAVYYCARGTTVGGAWFAYWGQGTLVTVSA
VL: VIVLTQSPASLAVSLGQRAAISCRASESVDSYGYSFLHWYQQKPGQPPKLLIYLASNLESGIPARFSGSGSGTDFTLTINPVEADDVATYYCQQSNEDLMYTFGGGTKLEIK
notes: Chimeric form of L77S2

IL-6 secretion by LPS-stimulated M2 macrophages (MSD), fold over control [2]: 2 fold
Kd [3]: ≤ 0.099 nM
koff [3]: ≤ 4.27e-05 s⁻¹
kon [1]: 431000 M⁻¹ s⁻¹
IC50 [4]: 0.095 µg/mL
IC50 [5]: 0.064 µg/mL
B5: L180S4 (antibody, IgG1, V domains shown)
VH: EVHLQQSGPELVKPGASVKISCKASGYSFIGYFMNWMKQSHGKSLEWIGRINPYNGDIFYNQKFKGKATLTVDKSSTTAHMDLLSLTSEDFAVYYCARGITVAAGSFDVWGTGTTVTVSS
VL: DIVLTQSPASLAVSLGQRATISCRASESVDNYGNTFMHWYQQKPGQPPKLLIYRASNLESGIPARFSGSGSKTDFTLTINPVEADDVATYYCQQSSDHPLTFGAGTKLELS
notes: also called Murine 180; mouse anti-human ILT4 antibody L180S4

Kd [3]: ≤ 0.049 nM
koff [3]: ≤ 4.27e-05 s⁻¹
kon [1]: 874000 M⁻¹ s⁻¹
B6: Chimeric 180 (antibody, V domains shown)
VH: EVHLQQSGPELVKPGASVKISCKASGYSFIGYFMNWMKQSHGKSLEWIGRINPYNGDIFYNQKFKGKATLTVDKSSTTAHMDLLSLTSEDFAVYYCARGITVAAGSFDVWGTGTTVTVSS
VL: DIVLTQSPASLAVSLGQRATISCRASESVDNYGNTFMHWYQQKPGQPPKLLIYRASNLESGIPARFSGSGSKTDFTLTINPVEADDVATYYCQQSSDHPLTFGAGTKLELS
notes: Chimeric form of L180S4
